Measured values as given in article PMC4014985 (Scientific Reports, 2014).

How the values were obtained:
Experiment in all cases: ITC
MBP-MCAF1Δ8 = target: MBP-MCAF1Δ8
[1] = target: 3-methyl purine DNA glycosylase (MPG) (UniProt P29372 18-298)
MBP-HDAC3 = MBP-HDAC3 (UniProt O15379 1-428)
Sequence of MBP-HDAC3 (O15379 whole entry): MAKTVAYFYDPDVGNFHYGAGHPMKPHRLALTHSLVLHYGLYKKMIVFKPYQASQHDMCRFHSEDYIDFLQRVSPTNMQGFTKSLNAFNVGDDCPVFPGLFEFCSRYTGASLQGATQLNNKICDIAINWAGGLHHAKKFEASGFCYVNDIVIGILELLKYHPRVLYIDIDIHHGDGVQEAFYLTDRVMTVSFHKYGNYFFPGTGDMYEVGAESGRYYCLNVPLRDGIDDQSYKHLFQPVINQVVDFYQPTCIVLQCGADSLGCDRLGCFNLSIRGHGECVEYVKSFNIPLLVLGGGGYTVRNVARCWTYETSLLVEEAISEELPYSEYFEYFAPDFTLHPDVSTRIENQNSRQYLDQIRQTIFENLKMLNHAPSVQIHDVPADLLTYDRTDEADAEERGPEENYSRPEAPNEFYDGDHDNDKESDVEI

Sequence of 3-methyl purine DNA glycosylase (MPG) (P29372 18-298): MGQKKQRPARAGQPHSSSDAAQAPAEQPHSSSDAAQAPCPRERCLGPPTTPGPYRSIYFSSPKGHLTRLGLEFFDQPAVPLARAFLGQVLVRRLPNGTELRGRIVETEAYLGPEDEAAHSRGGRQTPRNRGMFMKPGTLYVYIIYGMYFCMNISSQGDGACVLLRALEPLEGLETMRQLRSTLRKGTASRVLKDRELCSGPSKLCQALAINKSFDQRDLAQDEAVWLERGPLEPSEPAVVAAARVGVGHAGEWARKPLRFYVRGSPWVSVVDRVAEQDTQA

B1: C-terminus of MBD1 (MBD1-c, residues D507-Q605) (domain or fragment, human, UniProt Q9UIS9 507-605, looked up)
chain: DEWTPGTAVLTSPVLVPGCPSKAVDPGLPSVKQEPPDPEEDKEENKDDSASKLAPEEEAGGAGTPVITEIFSLGGTRFRDTAVWLPRSKDLKKPGARKQ
Ka (MBP-MCAF1Δ8): 160000 M⁻¹ | Kd (MBP-MCAF1Δ8): 6400 nM | dH (MBP-MCAF1Δ8): -3.92 kcal/mol | stoichiometry N (MBP-MCAF1Δ8): 1.06 | Ka [1]: 450000 ± 0.09 M⁻¹ | Kd [1]: 2290 ± 490 nM | dH [1]: -0.87 ± 0.09 kcal/mol | stoichiometry N [1]: 1.1 ± 0.11 | Ka (MBP-HDAC3): 430000 ± 0.07 M⁻¹ | Kd (MBP-HDAC3): 2350 ± 370 nM | dH (MBP-HDAC3): -1.75 ± 0.78 kcal/mol | stoichiometry N (MBP-HDAC3): 0.98 ± 0.06
